Laboratory results as given in publication PMC12394151 (2025).

Assays:
Assay in all cases: BLI
GP13-Fc = GP13-Fc (llama (Lama glama))
GP20-Fc = GP20-Fc (llama (Lama glama))
GP11-Fc = GP11-Fc (llama (Lama glama))
GP01-Fc = GP01-Fc (llama (Lama glama))

koff (GP13-Fc): 0.00288 s⁻¹ | koff (GP20-Fc): 0.000737 s⁻¹ | koff (GP11-Fc): 0.00042 s⁻¹ | koff (GP01-Fc): 0.00223 s⁻¹
B1: recombinant human gp130 with His-tag (Acro, ILT-H52H2) (receptor)
chain: ELLDPCGYISPESPVVQLHSNFTAVCVLKEKCMDYFHVNANYIVWKTNHFTIPKEQYTIINRTASSVTFTDIASLNIQLTCNILTFGQLEQNVYGITIISGLPPEKPKNLSCIVNEGKKMRCEWDGGRETHLETNFTLKSEWATHKFADCKAKRDTPTSCTVDYSTVYFVNIEVWVEAENALGKVTSDHINFDPVYKVKPNPPHNLSVINSEELSSILKLTWTNPSIKSVIILKYNIQYRTKDASTWSQIPPEDTASTRSSFTVQDLKPFTEYVFRIRCMKEDGKGYWSDWSEEASGITYEDRPSKAPSFWYKIDPSHTQGYRTVQLVWKTLPPFEANGKILDYEVTLTRWKSHLQNYTVNATKLTVNLTNDRYLATLTVRNLVGKSDAAVLTIPACDFQATHPVMDLKAFPKDNMLWVEWTTPRESVKKYILEWCVLSDKAPCITDWQQEDGTVHRTYLRGNLAESKCYLITVTPVYADGPGSPESIKAYLKQAPPSKGPTVRTKKVGKNEAVLEWDQLPVDVQNGFIRNYTIFYRTIIGNETAVNVDSSHTEYTLSSLTSDTLYMVRMAAYTDEGGKDGPEFTFTTPKFAQGEIE
